From US20230002757A1 (ZHEJIANG NANOMAB TECHNOLOGY CENTER, published 2023)

Key:
PD-1 protein [1] = target: T1, PD-1 protein (human, UniProt Q15116 25-167, limits assumed); experiment: ELISA, PD-1 coated
T1 construct: also called human PD-1
Method: 2 μg/ml of PD-1 protein is coated on 96-well plates overnight for ELISA binding assay. Recombinant VHH-FC proteins are added to the wells and allowed to stand for a period of time, then 1 μg/ml of HRP-conjugated anti-FC antibody is added as detection antibody and the assay reagents are added. The absorbance is read at 450 nm. Binding of nivolumab serves as a positive control and plates coated with BSA are used as the negative control group.

PD-1 protein [2] = target: T1, PD-1 protein; experiment: blocking ELISA, PD-1 coated, competitor biotin PD-L1
Method: Each well of 96-well microtiter plates is coated with 2 μg/ml of PD-1 protein in PBS and blocked with 1% BSA. […]
The intensity of the developed color is measured at 450 nm. Wells with no added PD-1 and no added VHH-FC are negative and positive controls, respectively.

T1 sequence (Q15116 25-167 limits assumed): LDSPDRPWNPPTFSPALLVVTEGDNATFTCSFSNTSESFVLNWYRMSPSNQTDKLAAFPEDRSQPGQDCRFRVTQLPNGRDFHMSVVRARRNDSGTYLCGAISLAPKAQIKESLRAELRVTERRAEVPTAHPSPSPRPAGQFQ

B1: 504#SS16 (Fc fusion, not shown: a dimerising Fc or GST; small tags and cut ends)
VHH: EVQVVESGGGLVQAGGSLRLSCAVSGRTFSSYVMGWFRQAPGKERDFVAAISRSGGRTWYADSVKGRFTISFDNAKNTVYLQMNSLKPEDTASYYCNTDYTFAKLTAPDRRNDDWGQGTQVTVSS
notes: VHH-FC construct from HEK293 cells
PD-1 protein [1]
  OD450 at 0.002 µg/mL: 0.03 OD450
  OD450 at 0.02 µg/mL: 0.04 OD450
  OD450 at 0.2 µg/mL: 0.03 OD450
  OD450 at 2 µg/mL: 0.05 OD450
PD-1 protein [2]
  OD450 of PD-L1 bound, antibody at 0.15 µg/mL: 3.48 OD450
  OD450 of PD-L1 bound, antibody at 0.61 µg/mL: 3.35 OD450
  OD450 of PD-L1 bound, antibody at 2.42 µg/mL: 3.22 OD450
  OD450 of PD-L1 bound, antibody at 9.75 µg/mL: 3.26 OD450

B2: 504#SS2 (Fc fusion)
VHH: EVQVVESGGGLVKTGDSLRLSCAASGGTISGYEMGWFRQAPGKEREFVAGISRNGRSTGYSDSAKDRFTISRDNAKNTVYLQMNSLKPEDTAVYYCAAGLKADYGDSYVDTSTRNYNYWGQGTQVTVSS
notes: VHH-FC construct from HEK293 cells; not shown: The (G4S)3 linker leading to it is left out with it
PD-1 protein [1]
  OD450 at 0.002 µg/mL: 0.59 OD450
  OD450 at 0.02 µg/mL: 2.25 OD450
  OD450 at 0.2 µg/mL: 3.12 OD450
  OD450 at 2 µg/mL: 3.1 OD450
PD-1 protein [2]
  OD450 of PD-L1 bound, antibody at 0.15 µg/mL: 3.34 OD450
  OD450 of PD-L1 bound, antibody at 0.61 µg/mL: 3.23 OD450
  OD450 of PD-L1 bound, antibody at 2.42 µg/mL: 3.31 OD450
  OD450 of PD-L1 bound, antibody at 9.75 µg/mL: 3.31 OD450

B3: 504#SS14 (Fc fusion, not shown: a dimerising Fc or GST; small tags and cut ends)
VHH: QVQLVESGGGLVQPGGSLRLSCVASGFTFSSYWMYWVRQAPGKGLEWVSAIDTTGGSTAYTHSVKGRFTISRDNARNTLYLQMNNLKSEDTAVYYCANSTYFNDDPEYDRWGQGTQVTVSS
notes: as for B1
PD-1 protein [1]
  OD450 at 0.002 µg/mL: 0.04 OD450
  OD450 at 0.02 µg/mL: 0.03 OD450
  OD450 at 0.2 µg/mL: 0.03 OD450
  OD450 at 2 µg/mL: 0.04 OD450
PD-1 protein [2]
  OD450 of PD-L1 bound, antibody at 0.15 µg/mL: 3.22 OD450
  OD450 of PD-L1 bound, antibody at 0.61 µg/mL: 3.25 OD450
  OD450 of PD-L1 bound, antibody at 2.42 µg/mL: 3.27 OD450
  OD450 of PD-L1 bound, antibody at 9.75 µg/mL: 3.36 OD450

B4: 504#SS25 (Fc fusion, not shown: a dimerising Fc or GST; small tags and cut ends)
VHH: QVQLVETGGGLVQAGGSLRLSCAASGDTIFISSMAWYRQAPGKERELVASIDSDDIIYYAATVKGRFTISRDNDKPTMYLQMDTLQPEDTAVYYCRVESQDYYFDYDRDSWGQGTQVTVSS
notes: as for B1
PD-1 protein [1]
  OD450 at 0.002 µg/mL: 0.03 OD450
  OD450 at 0.02 µg/mL: 0.03 OD450
  OD450 at 0.2 µg/mL: 0.03 OD450
  OD450 at 2 µg/mL: 0.04 OD450
PD-1 protein [2]
  OD450 of PD-L1 bound, antibody at 0.15 µg/mL: 3.32 OD450
  OD450 of PD-L1 bound, antibody at 0.61 µg/mL: 3.3 OD450
  OD450 of PD-L1 bound, antibody at 2.42 µg/mL: 3.36 OD450
  OD450 of PD-L1 bound, antibody at 9.75 µg/mL: 3.17 OD450

B5: 504#SS15 (Fc fusion, not shown: a dimerising Fc or GST; small tags and cut ends)
VHH: QVQLVESGGGLVQPGGSLRLSCAASGFTFSNYAMTWYRQAPGKERELVAAISSAGYTTTYAGSVKGRFTISRDNAKNTVYLQMNSLNPEDTAVYYCNAGRLSYGGSYYPNDDYWGQGTQVTVSS
notes: as for B1
PD-1 protein [1]
  OD450 at 0.002 µg/mL: 0.04 OD450
  OD450 at 0.02 µg/mL: 0.04 OD450
  OD450 at 0.2 µg/mL: 0.04 OD450
  OD450 at 2 µg/mL: 0.05 OD450
PD-1 protein [2]
  OD450 of PD-L1 bound, antibody at 0.15 µg/mL: 3.53 OD450
  OD450 of PD-L1 bound, antibody at 0.61 µg/mL: 3.69 OD450
  OD450 of PD-L1 bound, antibody at 2.42 µg/mL: 3.57 OD450
  OD450 of PD-L1 bound, antibody at 9.75 µg/mL: 3.68 OD450

B6: 504#SS30 (Fc fusion, not shown: a dimerising Fc or GST; small tags and cut ends)
VHH: EVQLVETGGGLVQAGGSLRLACEVSGRTFSSYAMGWFRQAPGREREFVASIRVSGGITDYADSVKGRFTISRDNAKDTVYLQMINLKPEDTAVYYCNADISRYRFSRGDYWGKGTLVTVSS
notes: as for B1
PD-1 protein [1]
  OD450 at 0.002 µg/mL: 0.04 OD450
  OD450 at 0.02 µg/mL: 0.03 OD450
  OD450 at 0.2 µg/mL: 0.03 OD450
  OD450 at 2 µg/mL: 0.04 OD450
PD-1 protein [2]
  OD450 of PD-L1 bound, antibody at 0.15 µg/mL: 3.33 OD450
  OD450 of PD-L1 bound, antibody at 0.61 µg/mL: 3.26 OD450
  OD450 of PD-L1 bound, antibody at 2.42 µg/mL: 3.29 OD450
  OD450 of PD-L1 bound, antibody at 9.75 µg/mL: 3.28 OD450

B7: 504#SS1 (Fc fusion)
VHH: QVQLVESGGGLVQAGGSLRLSCAASGLTFSDFAMGWFRQAPGKEREFVAAISWSGGQTYNVESAKGRFTISRDNAKNTVYLQMNKLKPDDTAVYYCAASTMVVTTVAADYKYWGQGTQVTVSS
notes: as for B2
PD-1 protein [1]
  OD450 at 0.002 µg/mL: 0.03 OD450
  OD450 at 0.02 µg/mL: 0.03 OD450
  OD450 at 0.2 µg/mL: 0.03 OD450
  OD450 at 2 µg/mL: 0.04 OD450
PD-1 protein [2]
  OD450 of PD-L1 bound, antibody at 0.15 µg/mL: 3.19 OD450
  OD450 of PD-L1 bound, antibody at 0.61 µg/mL: 3.15 OD450
  OD450 of PD-L1 bound, antibody at 2.42 µg/mL: 3.26 OD450
  OD450 of PD-L1 bound, antibody at 9.75 µg/mL: 3.17 OD450

B8: 504#SS29 (Fc fusion, not shown: a dimerising Fc or GST; small tags and cut ends)
VHH: QVQLVESGGGLVQAGGSLRLSCAASGRTFSGYTMGWFRRAPGKERELIANILWNSARRYYADSVKGRFTISRDNAMNTVDLQMNSLKPEDTAVYYCAVLVDSTYRFSNQGTQVTVSS
notes: as for B1
PD-1 protein [1]
  OD450 at 0.002 µg/mL: 0.04 OD450
  OD450 at 0.02 µg/mL: 0.04 OD450
  OD450 at 0.2 µg/mL: 0.06 OD450
  OD450 at 2 µg/mL: 0.35 OD450
PD-1 protein [2]
  OD450 of PD-L1 bound, antibody at 0.15 µg/mL: 3.35 OD450
  OD450 of PD-L1 bound, antibody at 0.61 µg/mL: 3.36 OD450
  OD450 of PD-L1 bound, antibody at 2.42 µg/mL: 3.39 OD450
  OD450 of PD-L1 bound, antibody at 9.75 µg/mL: 3.31 OD450

B9: 504#SS22 (Fc fusion, not shown: a dimerising Fc or GST; small tags and cut ends)
VHH: QVQLVETGGGLVQAGGSLRLSCAASGRTFSSYAMGWFRQAPGKERDFVAGISGSGGNTPYAESVKGRFTISRDNAKNTVALQMNSLKPEDTAVYYCAAKFTSSSFYYRSPREYSSWGQGTQVTVSS
notes: as for B1
PD-1 protein [1]
  OD450 at 0.002 µg/mL: 0.04 OD450
  OD450 at 0.02 µg/mL: 0.03 OD450
  OD450 at 0.2 µg/mL: 0.03 OD450
  OD450 at 2 µg/mL: 0.04 OD450
PD-1 protein [2]
  OD450 of PD-L1 bound, antibody at 0.15 µg/mL: 3.47 OD450
  OD450 of PD-L1 bound, antibody at 0.61 µg/mL: 3.34 OD450
  OD450 of PD-L1 bound, antibody at 2.42 µg/mL: 3.32 OD450
  OD450 of PD-L1 bound, antibody at 9.75 µg/mL: 3.28 OD450

B10: 504#SS23 (Fc fusion, not shown: a dimerising Fc or GST; small tags and cut ends)
VHH: QVQLVESGGGLVQPGGSLRLSCAASGFTFSSYVMSWVRQAPGKGLEWVSAINSGGSSSSYPESVKDRFTVSRDNAKNTLYLQMNSLKPEDTAVYFCAAKNVPGFYYSDYANHEYDYWGQGTQVTVSS
notes: as for B1
PD-1 protein [1]
  OD450 at 0.002 µg/mL: 0.19 OD450
  OD450 at 0.02 µg/mL: 1.22 OD450
  OD450 at 0.2 µg/mL: 2.91 OD450
  OD450 at 2 µg/mL: 3 OD450
PD-1 protein [2]
  OD450 of PD-L1 bound, antibody at 0.15 µg/mL: 3.47 OD450
  OD450 of PD-L1 bound, antibody at 0.61 µg/mL: 3.31 OD450
  OD450 of PD-L1 bound, antibody at 2.42 µg/mL: 3.29 OD450
  OD450 of PD-L1 bound, antibody at 9.75 µg/mL: 3.28 OD450

B11: 504#SS28 (Fc fusion, not shown: a dimerising Fc or GST; small tags and cut ends)
VHH: QVQLVESGGGSVQPGGSLRLSCAVSGFTLDYYDIGWFRQAPGKERDWISCISSSDGSQYYADSVKDRFFISRDNAKNTVYLQMNSLEPGDTAVYYCAADFDTYRFCSGFGPDAYSSWGQGTQVIVSS
notes: as for B1
PD-1 protein [1]
  OD450 at 0.002 µg/mL: 0.14 OD450
  OD450 at 0.02 µg/mL: 0.93 OD450
  OD450 at 0.2 µg/mL: 2.77 OD450
  OD450 at 2 µg/mL: 3.06 OD450
PD-1 protein [2]
  OD450 of PD-L1 bound, antibody at 0.15 µg/mL: 3.32 OD450
  OD450 of PD-L1 bound, antibody at 0.61 µg/mL: 3.28 OD450
  OD450 of PD-L1 bound, antibody at 2.42 µg/mL: 3.31 OD450
  OD450 of PD-L1 bound, antibody at 9.75 µg/mL: 3.27 OD450
